Source: patent US20050239710

Molecular target: T1, 19-mer (SEQ ID NO:11) cleavage domain peptide
T1 chain: PRCGNPDVANYNFFPRKPK

B1: Proenzyme pro-MMP-9 (protein)
chain: APRQRQSTLVLFPGDLRTNLTDRQLAEEYLYRYGYTRVAEMRGESKSLGPALLLLQKQLSLPETGELDSATLKAMRTPRCGVPDLGRFQTFEGDLKWHHHNITYWIQNYSEDLPRAVIDDAFARAFALWSAVTPLTFTRVYSRDADIVIQFGVAEHGDGYPFDGKDGLLAHAFPPGPGIQGDAHFDDDELWSLGKGVVVPTRFGNADGAACHFPFIFEGRSYSACTTDGRSDGLPWCSTTANYDTDDRFGFCPSERLYTQDGNADGKPCQFPFIFQGQSYSACTTDGRSDGYRWCATTANYDRDKLFGFCPTRADSTVMGGNSAGELCVFPFTFLGKEYSTCTSEGRGDGRLWCATTSNFDSDKKWGFCPDQGYSLFLVAAHEFGHALGLDHSSVPEALMYPMYRFTEGPPLHKDDVNGIRHLYGPRPEPEPRPPTTTTPQPTAPPTVCPTGPPTVHPSERPTAGPTGPPSAGPTGPPTAGPSTATTVPLSPVDDACNVNIFDAIAEIGNQLYLFKDGKYWRFSEGRGSRPQGPFLIADKWPALPRKLDSVFEERLSKKLFFFSGRQVWVYTGASVLGPRRLDKLGLGADVAQVTGALRSGRGKMLLFSGRRLWRFDVKAQMVDPRSASEVDRMFPGVPLDTHDVFQYREKAYFCQDRFYWRVSSRSELNQVDQVGYVTYDILQCPED
- conversion of pro-MMP-9 into prodomain and active enzyme by stromilysin (HPLC splicing assay): Splicing can be inhibited in a dose dependent manner with micromolar 19-mer (SEQ ID NO:11) peptide.
